Data on one molecule can be found in paper PMC10097598, “Cryo-EM structure of the transposon-associated TnpB enzyme”.

The data set deals with T1, TnpB (ISDra2) (Deinococcus radiodurans (ISDra2), UniProt Q7DF80 1-408).
T1 sequence: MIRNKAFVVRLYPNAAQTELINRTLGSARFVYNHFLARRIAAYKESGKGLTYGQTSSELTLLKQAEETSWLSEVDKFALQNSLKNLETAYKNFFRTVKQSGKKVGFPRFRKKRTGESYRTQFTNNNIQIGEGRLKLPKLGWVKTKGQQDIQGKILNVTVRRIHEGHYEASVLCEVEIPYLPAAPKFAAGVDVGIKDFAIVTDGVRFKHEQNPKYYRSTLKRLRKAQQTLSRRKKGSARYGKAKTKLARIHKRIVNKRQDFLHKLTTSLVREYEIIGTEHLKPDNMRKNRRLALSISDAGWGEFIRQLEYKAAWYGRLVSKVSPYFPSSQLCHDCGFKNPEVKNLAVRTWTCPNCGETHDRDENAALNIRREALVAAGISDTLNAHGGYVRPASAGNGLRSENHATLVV
Nature of the data set: co-purification (urea-PAGE, northern blot); bound RNA is 5'-processed, 100-160 nt; Ternary complex: TnpB–ωRNA + target DNA, room temperature 30 min; SEC in 20 mM Tris-HCl pH 8.0, 150 mM NaCl, 2 mM MgCl2, 10 uM ZnCl2, 1 mM DTT. Copurification:
The note with it: protein: recombinant; tags: N-terminal MBP, removed with HRV3C; pseudoknot, stems 1-3, triple helix.

B1: ωRNA full length (as co-expressed) (structured_RNA)
RNA: GAUUCAAGAAUCCCGAAGUGAAGAAUCUUGCCGUCCGUACAUGGACUUGCCCGAACUGUGGGGAAACCCAUGACCGAGACGAGAACGCUGCGCUGAACAUUCGGCGUGAAGCGUUGGUGGCUGCGGGAAUCUCAGACACCUUAAACGCUCAUGGAGGCUAUGUCAGACCUGCUUCGGCGGGCAAUGGUCUGCGAAGUGAGAAUCACGCGACUUUAGUCGUGUGAGGUUCAAGAGUCCCUUGGCGCCC
In the case of B1, the binding result is reported as “binds”.
